Laboratory results from paper PMC8586251, “Cryo-EM structure provides insights into the dimer arrangement of the O-linked β-N-acetylglucosamine transferase OGT” (Nature Communications, 2021).

B1: O-GlcNAc transferase OGT, full length, isoform 3, wildtype (construct for SEC-MALLS) (enzyme, UniProt O15294-1 1-1046, looked up)
chain: MASSVGNVADSTEPTKRMLSFQGLAELAHREYQAGDFEAAERHCMQLWRQEPDNTGVLLLLSSIHFQCRRLDRSAHFSTLAIKQNPLLAEAYSNLGNVYKERGQLQEAIEHYRHALRLKPDFIDGYINLAAALVAAGDMEGAVQAYVSALQYNPDLYCVRSDLGNLLKALGRLEEAKACYLKAIETQPNFAVAWSNLGCVFNAQGEIWLAIHHFEKAVTLDPNFLDAYINLGNVLKEARIFDRAVAAYLRALSLSPNHAVVHGNLACVYYEQGLIDLAIDTYRRAIELQPHFPDAYCNLANALKEKGSVAEAEDCYNTALRLCPTHADSLNNLANIKREQGNIEEAVRLYRKALEVFPEFAAAHSNLASVLQQQGKLQEALMHYKEAIRISPTFADAYSNMGNTLKEMQDVQGALQCYTRAIQINPAFADAHSNLASIHKDSGNIPEAIASYRTALKLKPDFPDAYCNLAHCLQIVCDWTDYDERMKKLVSIVADQLEKNRLPSVHPHHSMLYPLSHGFRKAIAERHGNLCLDKINVLHKPPYEHPKDLKLSDGRLRVGYVSSDFGNHPTSHLMQSIPGMHNPDKFEVFCYALSPDDGTNFRVKVMAEANHFIDLSQIPCNGKAADRIHQDGIHILVNMNGYTKGARNELFALRPAPIQAMWLGYPGTSGALFMDYIITDQETSPAEVAEQYSEKLAYMPHTFFIGDHANMFPHLKKKAVIDFKSNGHIYDNRIVLNGIDLKAFLDSLPDVKIVKMKCPDGGDNADSSNTALNMPVIPMNTIAEAVIEMINRGQIQITINGFSISNGLATTQINNKAATGEEVPRTIIVTTRSQYGLPEDAIVYCNFNQLYKIDPSTLQMWANILKRVPNSVLWLLRFPAVGEPNIQQYAQNMGLPQNRIIFSPVAPKEEHVRRGQLADVCLDTPLCNGHTTGMDVLWAGTPMVTMPGETLASRVAASQLTCLGCLELIAKNRQEYEDIAVKLGTDLEYLKKVRGKVWKQRISSPLFNTKQYTMELERLYLQMWEHYAAGNKPDHMIKPVEVTESA
notes: also called OGT wildtype; source: E. coli BL21-Gold(DE3), purified (HisTrap, Q Sepharose, Superdex 200)
B2: O-GlcNAc transferase OGT, full length, isoform 3, E206A (enzyme, UniProt O15294-1 1-1046, looked up)
chain: MASSVGNVADSTEPTKRMLSFQGLAELAHREYQAGDFEAAERHCMQLWRQEPDNTGVLLLLSSIHFQCRRLDRSAHFSTLAIKQNPLLAEAYSNLGNVYKERGQLQEAIEHYRHALRLKPDFIDGYINLAAALVAAGDMEGAVQAYVSALQYNPDLYCVRSDLGNLLKALGRLEEAKACYLKAIETQPNFAVAWSNLGCVFNAQGAIWLAIHHFEKAVTLDPNFLDAYINLGNVLKEARIFDRAVAAYLRALSLSPNHAVVHGNLACVYYEQGLIDLAIDTYRRAIELQPHFPDAYCNLANALKEKGSVAEAEDCYNTALRLCPTHADSLNNLANIKREQGNIEEAVRLYRKALEVFPEFAAAHSNLASVLQQQGKLQEALMHYKEAIRISPTFADAYSNMGNTLKEMQDVQGALQCYTRAIQINPAFADAHSNLASIHKDSGNIPEAIASYRTALKLKPDFPDAYCNLAHCLQIVCDWTDYDERMKKLVSIVADQLEKNRLPSVHPHHSMLYPLSHGFRKAIAERHGNLCLDKINVLHKPPYEHPKDLKLSDGRLRVGYVSSDFGNHPTSHLMQSIPGMHNPDKFEVFCYALSPDDGTNFRVKVMAEANHFIDLSQIPCNGKAADRIHQDGIHILVNMNGYTKGARNELFALRPAPIQAMWLGYPGTSGALFMDYIITDQETSPAEVAEQYSEKLAYMPHTFFIGDHANMFPHLKKKAVIDFKSNGHIYDNRIVLNGIDLKAFLDSLPDVKIVKMKCPDGGDNADSSNTALNMPVIPMNTIAEAVIEMINRGQIQITINGFSISNGLATTQINNKAATGEEVPRTIIVTTRSQYGLPEDAIVYCNFNQLYKIDPSTLQMWANILKRVPNSVLWLLRFPAVGEPNIQQYAQNMGLPQNRIIFSPVAPKEEHVRRGQLADVCLDTPLCNGHTTGMDVLWAGTPMVTMPGETLASRVAASQLTCLGCLELIAKNRQEYEDIAVKLGTDLEYLKKVRGKVWKQRISSPLFNTKQYTMELERLYLQMWEHYAAGNKPDHMIKPVEVTESA
notes: O-GlcNAc transferase OGT, isoform 3, UniProt O15294-1, full length, site-directed mutant; source: E. coli BL21-Gold(DE3), purified (HisTrap, Q Sepharose, Superdex 200)
B3: O-GlcNAc transferase OGT, full length, isoform 3, E215A (enzyme, UniProt O15294-1 1-1046, looked up)
chain: MASSVGNVADSTEPTKRMLSFQGLAELAHREYQAGDFEAAERHCMQLWRQEPDNTGVLLLLSSIHFQCRRLDRSAHFSTLAIKQNPLLAEAYSNLGNVYKERGQLQEAIEHYRHALRLKPDFIDGYINLAAALVAAGDMEGAVQAYVSALQYNPDLYCVRSDLGNLLKALGRLEEAKACYLKAIETQPNFAVAWSNLGCVFNAQGEIWLAIHHFAKAVTLDPNFLDAYINLGNVLKEARIFDRAVAAYLRALSLSPNHAVVHGNLACVYYEQGLIDLAIDTYRRAIELQPHFPDAYCNLANALKEKGSVAEAEDCYNTALRLCPTHADSLNNLANIKREQGNIEEAVRLYRKALEVFPEFAAAHSNLASVLQQQGKLQEALMHYKEAIRISPTFADAYSNMGNTLKEMQDVQGALQCYTRAIQINPAFADAHSNLASIHKDSGNIPEAIASYRTALKLKPDFPDAYCNLAHCLQIVCDWTDYDERMKKLVSIVADQLEKNRLPSVHPHHSMLYPLSHGFRKAIAERHGNLCLDKINVLHKPPYEHPKDLKLSDGRLRVGYVSSDFGNHPTSHLMQSIPGMHNPDKFEVFCYALSPDDGTNFRVKVMAEANHFIDLSQIPCNGKAADRIHQDGIHILVNMNGYTKGARNELFALRPAPIQAMWLGYPGTSGALFMDYIITDQETSPAEVAEQYSEKLAYMPHTFFIGDHANMFPHLKKKAVIDFKSNGHIYDNRIVLNGIDLKAFLDSLPDVKIVKMKCPDGGDNADSSNTALNMPVIPMNTIAEAVIEMINRGQIQITINGFSISNGLATTQINNKAATGEEVPRTIIVTTRSQYGLPEDAIVYCNFNQLYKIDPSTLQMWANILKRVPNSVLWLLRFPAVGEPNIQQYAQNMGLPQNRIIFSPVAPKEEHVRRGQLADVCLDTPLCNGHTTGMDVLWAGTPMVTMPGETLASRVAASQLTCLGCLELIAKNRQEYEDIAVKLGTDLEYLKKVRGKVWKQRISSPLFNTKQYTMELERLYLQMWEHYAAGNKPDHMIKPVEVTESA
notes: as for B2

Key:
[1] = target: O-GlcNAc transferase OGT, full length, isoform 3, double mutant (W208A, I211A) (UniProt O15294)
[2] = target: the molecule itself; test: SEC-MALS; SEC-MALLS; Superdex S200 10/300 GL in 20 mM HEPES 7.5, 200 mM NaCl, room temperature; 100 µl of 3 mg/ml OGT injected, 0.5 ml/min; dimer against monomer

Row | Molecule | relative second order rate constant of glycosyl transfer to TAB1 protein (fluorescent OGT activity assay), against wildtype OGT (% lower than wildtype) [1] | stoichiometry N [2]
1 | O-GlcNAc transferase OGT, full length, isoform 3, double mutant (W208A, I211A) (from UniProt O15294-1 1-1046) (enzyme) | 50 | 
2 | B1 |  | 2
3 | B2 |  | 2
4 | B3 |  | 2
